Experimental data: US20220175942A1 (OXFORD UNIVERSITY INNOVATION, published 2022)
Residue numbers refer to the chain shown, from its start.

T1: P985_AMBPA (Amblyomma parvum, UniProt A0A023FT45 25-132)
T1 construct: Tick evasin; also called Evasin
T1 sequence: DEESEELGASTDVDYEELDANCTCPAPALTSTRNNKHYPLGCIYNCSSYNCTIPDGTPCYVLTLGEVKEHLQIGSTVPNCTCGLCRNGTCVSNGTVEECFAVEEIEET

T2: P467_RHIPU (Rhipicephalus pulchellus, UniProt L7M8Z8 22-127)
T2 construct: Tick evasin; also called Evasin
T2 sequence: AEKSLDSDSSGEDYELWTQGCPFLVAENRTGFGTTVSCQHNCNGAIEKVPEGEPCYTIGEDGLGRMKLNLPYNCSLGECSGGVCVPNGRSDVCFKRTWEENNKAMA

T3: P1243_AMBAM (Amblyomma americanum, UniProt A0A0C9S461 26-123)
T3 construct: Tick evasin; also called Evasin
T3 sequence: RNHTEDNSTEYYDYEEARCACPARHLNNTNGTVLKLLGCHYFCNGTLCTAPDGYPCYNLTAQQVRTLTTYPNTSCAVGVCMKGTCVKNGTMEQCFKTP

T4: CCL25_HUMAN (human, UniProt O15444 24-150)
T4 construct: Biotinylated (detected with streptavidin-Alexa647) in yeast display; AlexaFluor 647 labelled (Almac) in thermophoresis
T4 sequence: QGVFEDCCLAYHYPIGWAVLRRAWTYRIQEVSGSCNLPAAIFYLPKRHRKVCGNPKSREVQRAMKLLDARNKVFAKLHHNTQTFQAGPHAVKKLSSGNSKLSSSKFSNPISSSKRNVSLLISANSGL

T5: P672_RHIPU (Rhipicephalus pulchellus, UniProt L7MC74 22-125)
T5 construct: Tick evasin; also called Evasin
T5 sequence: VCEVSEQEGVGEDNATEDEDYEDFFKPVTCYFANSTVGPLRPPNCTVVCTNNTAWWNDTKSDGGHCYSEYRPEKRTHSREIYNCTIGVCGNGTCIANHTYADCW

T6: P1182_AMBMA (Amblyomma maculatum, UniProt G3MJ83 27-115)
T6 construct: Tick evasin; also called Evasin
T6 sequence: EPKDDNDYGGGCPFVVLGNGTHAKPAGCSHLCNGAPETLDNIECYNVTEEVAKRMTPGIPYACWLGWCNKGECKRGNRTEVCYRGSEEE

T7: CCL18_HUMAN (human, UniProt P55774 21-89)
T7 construct: Biotinylated (detected with streptavidin-Alexa647) in yeast display; AlexaFluor 647 labelled (Almac) in thermophoresis
T7 sequence: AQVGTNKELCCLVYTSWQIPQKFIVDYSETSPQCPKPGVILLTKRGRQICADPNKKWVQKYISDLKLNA

T8: CCL1_HUMAN (human, UniProt P22362 24-96)
T8 construct: Biotinylated (detected with streptavidin-Alexa647) in yeast display; AlexaFluor 647 labelled (Almac) in thermophoresis
T8 sequence: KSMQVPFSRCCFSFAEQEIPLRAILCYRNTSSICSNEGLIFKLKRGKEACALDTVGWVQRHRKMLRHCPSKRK

T9: CXCL8_HUMAN (human, UniProt P10145 28-99)
T9 construct: Biotinylated (detected with streptavidin-Alexa647) in yeast display; AlexaFluor 647 labelled (Almac) in thermophoresis
T9 sequence: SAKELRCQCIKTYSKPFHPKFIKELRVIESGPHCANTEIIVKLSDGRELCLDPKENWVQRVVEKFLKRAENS

T10: P983_AMBCA (Amblyomma cajennense, UniProt A0A023FFB5 22-119)
T10 construct: Tick evasin; also called Evasin
T10 sequence: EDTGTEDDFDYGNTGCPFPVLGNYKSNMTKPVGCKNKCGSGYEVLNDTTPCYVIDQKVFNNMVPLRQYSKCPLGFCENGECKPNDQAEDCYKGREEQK

T11: P1181_AMBMA (Amblyomma maculatum, UniProt G3MIX6 26-115)
T11 construct: Tick evasin; also called Evasin
T11 sequence: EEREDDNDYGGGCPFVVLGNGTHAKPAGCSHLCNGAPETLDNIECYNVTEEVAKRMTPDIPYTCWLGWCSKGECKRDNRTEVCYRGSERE

T12: P974_AMBCA (Amblyomma cajennense, UniProt A0A023FDY8 22-118)
T12 construct: Tick evasin; also called Evasin
T12 sequence: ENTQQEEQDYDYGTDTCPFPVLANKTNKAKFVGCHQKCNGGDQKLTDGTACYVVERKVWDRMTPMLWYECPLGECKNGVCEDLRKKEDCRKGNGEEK

T13: P991_AMBCA (Amblyomma cajennense, UniProt A0A023FFD0 29-136)
T13 construct: Tick evasin; also called Evasin
T13 sequence: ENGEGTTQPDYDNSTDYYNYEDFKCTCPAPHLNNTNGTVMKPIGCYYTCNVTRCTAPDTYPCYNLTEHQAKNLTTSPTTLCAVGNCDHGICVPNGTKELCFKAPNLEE

T14: P1180_AMBTR (Amblyomma triste, UniProt A0A023G6B6 26-116)
T14 construct: Tick evasin; also called Evasin
T14 sequence: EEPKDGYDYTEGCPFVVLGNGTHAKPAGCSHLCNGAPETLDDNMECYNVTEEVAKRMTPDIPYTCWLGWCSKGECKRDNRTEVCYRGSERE

B1: CCL5_HUMAN (ligand)
chain: SPYSSDTTPCCFAYIARPLPRAHIKEYFYTSGKCSNPAVVFVTRKNRQVCANPEKKWVREYINSLEMS
notes: Biotinylated (detected with streptavidin-Alexa647) in yeast display; AlexaFluor 647 labelled (Almac) in thermophoresis
B2: CCL15_HUMAN (ligand)
chain: QFTNDAETELMMSKLPLENPVVLNSFHFAADCCTSYISQSIPCSLMKSYFETSSECSKPGVIFLTKKGRQVCAKPSGPGVQDCMKKLKPYSI
notes: as for B1
B3: P546_AMBCA (other)
chain: T12 sequence with Q8E, E69S, D88E
notes: Tick evasin; also called Evasin
B4: CCL8_HUMAN (ligand)
chain: QPDSVSIPITCCFNVINRKIPIQRLESYTRITNIQCPKEAVIFKTKRGKEVCADPKERWVRDSMKHLDQIFQNLKP
notes: as for B1
B5: P1215_AMBPA (other)
chain: KTDTKNAAGELPPKVVIPGCEDPATTKAPLPDEPPYYGITIDKDGCQRKVLGSSQRQQRKVQNGRKLDGKKRGRRPVFVDLELTVDCKRKCNGTYSQLPDGENCLVSDGYPYGRWGTIKGGCYQGNCSSGQCHRGEKKVNCYLPKNITNDVPKSLNLAE
notes: as for B3
B6: CCL4 (ligand)
chain: APMGSDPPTACCFSYTARKLPRNFVVDYYETSSLCSQPAVVFQTKRSKQVCADPSESWVQEYVYDLELN
notes: Biotinylated (detected with streptavidin-Alexa647) in yeast display; also called human CCL4

How the values were obtained:
[1] = target: T1, P985_AMBPA; assay: microscale thermophoresis, AlexaFluor 647 labelled chemokine
[2] = target: T2, P467_RHIPU; assay: as above
[3] = target: T3, P1243_AMBAM; assay: as above
[4] = target: T4, CCL25_HUMAN; assay: as above
[5] = target: B3; assay: as above
[6] = target: T5, P672_RHIPU; assay: yeast surface display library FACS screen, labelled chemokine (col C: isolated in)
[7] = target: T6, P1182_AMBMA; assay: as above
[8] = target: B1; assay: microscale thermophoresis, AlexaFluor 647 labelled chemokine
[9] = target: T7, CCL18_HUMAN; assay: yeast surface display FACS re-test, >3 fold MFI over control (col D);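 further: yeast displaying putative tick Evasins stained with biotinylated human chemokine plus streptavidin-Alexa647, flow cytometry, positive when MFI exceeds 3-fold the empty-vector or no-chemokine background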
[10] = target: T15, CCL11_HUMAN (human, UniProt P51671 24-97); assay: yeast surface display library FACS screen, labelled chemokine (col C: isolated in)
T15 construct: Biotinylated (detected with streptavidin-Alexa647) in yeast display; AlexaFluor 647 labelled (Almac) in thermophoresis

[11] = target: T8, CCL1_HUMAN; assay: as above
[12] = target: T9, CXCL8_HUMAN; assay: as above
[13] = target: T1, P985_AMBPA; assay: yeast surface display FACS re-test, >3 fold MFI over control (col D);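 further: yeast displaying putative tick Evasins stained with biotinylated human chemokine plus streptavidin-Alexa647, flow cytometry, positive when MFI exceeds 3-fold the empty-vector or no-chemokine background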
[14] = target: B3; assay: as above
[15] = target: T10, P983_AMBCA; assay: as above
[16] = target: T3, P1243_AMBAM; assay: yeast surface display library FACS screen, labelled chemokine (col C: isolated in)
[17] = target: T11, P1181_AMBMA; assay: as above
[18] = target: T12, P974_AMBCA; assay: as above
[19] = target: T13, P991_AMBCA; assay: as above
[20] = target: T14, P1180_AMBTR; assay: as above

T15 sequence (P51671 24-97 limits assumed): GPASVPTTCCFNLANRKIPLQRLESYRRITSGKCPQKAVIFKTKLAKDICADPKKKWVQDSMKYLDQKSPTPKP

Work on B1 yielded a Kd [1] of 48 nM and a Kd [2] of 48 nM.

For B2, the Kd [3] was 4 nM.

B3 was tested, and the Kd [4] was 1220 nM.

With B4 the Kd [5] was 80 nM, the binding result [6] was “binds” and the binding result [7] was “binds”.

In the case of B5, the Kd [8] is reported as 73 nM, the binding result [9] is reported as “binds” and the binding result [10] is reported as “binds”. B5: binds [11]; binds [12].

B6: binds [13]; binds [14]; binds [15]. B6: binds [16]; binds [17]; binds [18]. B6: binds [19]; binds [7]; binds [20].
